These are literature values, as cited in paper PMC12428796.

Usually Kd stands for the equilibrium constant for the complex coming apart.

Common to all, as to conditions: No direct protein-aptamer binding assay in this paper (only cell uptake by flow cytometry/confocal in MIA PaCa-2 and L929, with anti-nucleolin blocking)
In general terms: Flow cytometry measures light scatter and fluorescence of single cells or particles in a stream.

In data set [1] the target is transferrin receptor 1 (TfR1) (UniProt P02786).
The target of data set [2] is matrix metalloproteinase 14 (MMP14) (UniProt P50281).
Data set [3] has as its target T1, cholecystokinin B receptor (CCKBR) (UniProt P32239).
T1 sequence (P32239 whole entry, looked up): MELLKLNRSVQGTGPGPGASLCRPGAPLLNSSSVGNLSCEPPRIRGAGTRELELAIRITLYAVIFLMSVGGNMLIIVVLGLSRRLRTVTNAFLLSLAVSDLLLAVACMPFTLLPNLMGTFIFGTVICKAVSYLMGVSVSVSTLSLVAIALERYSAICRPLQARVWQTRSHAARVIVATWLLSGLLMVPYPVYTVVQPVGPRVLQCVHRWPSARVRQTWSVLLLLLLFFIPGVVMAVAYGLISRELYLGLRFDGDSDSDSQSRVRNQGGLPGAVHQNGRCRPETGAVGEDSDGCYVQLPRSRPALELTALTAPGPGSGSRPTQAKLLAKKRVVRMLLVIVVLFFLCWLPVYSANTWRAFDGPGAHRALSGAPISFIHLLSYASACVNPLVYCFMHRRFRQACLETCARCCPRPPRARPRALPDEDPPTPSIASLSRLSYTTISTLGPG

A further data set addresses nucleolin (UniProt P19338).

Sequence of nucleolin (P19338 whole entry): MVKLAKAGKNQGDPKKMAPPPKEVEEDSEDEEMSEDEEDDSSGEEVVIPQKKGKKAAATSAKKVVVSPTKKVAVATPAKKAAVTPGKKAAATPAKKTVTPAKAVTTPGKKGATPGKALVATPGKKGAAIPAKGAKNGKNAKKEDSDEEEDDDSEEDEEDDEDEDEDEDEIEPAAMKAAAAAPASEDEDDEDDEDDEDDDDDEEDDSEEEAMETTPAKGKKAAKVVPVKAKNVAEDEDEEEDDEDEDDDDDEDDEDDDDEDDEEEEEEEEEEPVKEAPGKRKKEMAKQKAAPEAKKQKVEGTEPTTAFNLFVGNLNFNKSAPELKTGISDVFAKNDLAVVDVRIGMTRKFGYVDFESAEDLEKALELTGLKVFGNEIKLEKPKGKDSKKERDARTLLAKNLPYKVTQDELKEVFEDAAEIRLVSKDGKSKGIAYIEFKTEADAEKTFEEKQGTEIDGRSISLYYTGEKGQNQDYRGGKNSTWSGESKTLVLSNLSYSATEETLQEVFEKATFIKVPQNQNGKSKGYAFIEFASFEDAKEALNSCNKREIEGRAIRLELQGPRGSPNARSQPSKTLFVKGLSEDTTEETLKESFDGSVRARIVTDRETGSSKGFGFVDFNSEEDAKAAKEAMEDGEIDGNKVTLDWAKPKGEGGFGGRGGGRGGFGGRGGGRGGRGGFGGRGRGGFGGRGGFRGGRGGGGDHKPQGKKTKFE
Sequence of transferrin receptor 1 (TfR1) (P02786 whole entry): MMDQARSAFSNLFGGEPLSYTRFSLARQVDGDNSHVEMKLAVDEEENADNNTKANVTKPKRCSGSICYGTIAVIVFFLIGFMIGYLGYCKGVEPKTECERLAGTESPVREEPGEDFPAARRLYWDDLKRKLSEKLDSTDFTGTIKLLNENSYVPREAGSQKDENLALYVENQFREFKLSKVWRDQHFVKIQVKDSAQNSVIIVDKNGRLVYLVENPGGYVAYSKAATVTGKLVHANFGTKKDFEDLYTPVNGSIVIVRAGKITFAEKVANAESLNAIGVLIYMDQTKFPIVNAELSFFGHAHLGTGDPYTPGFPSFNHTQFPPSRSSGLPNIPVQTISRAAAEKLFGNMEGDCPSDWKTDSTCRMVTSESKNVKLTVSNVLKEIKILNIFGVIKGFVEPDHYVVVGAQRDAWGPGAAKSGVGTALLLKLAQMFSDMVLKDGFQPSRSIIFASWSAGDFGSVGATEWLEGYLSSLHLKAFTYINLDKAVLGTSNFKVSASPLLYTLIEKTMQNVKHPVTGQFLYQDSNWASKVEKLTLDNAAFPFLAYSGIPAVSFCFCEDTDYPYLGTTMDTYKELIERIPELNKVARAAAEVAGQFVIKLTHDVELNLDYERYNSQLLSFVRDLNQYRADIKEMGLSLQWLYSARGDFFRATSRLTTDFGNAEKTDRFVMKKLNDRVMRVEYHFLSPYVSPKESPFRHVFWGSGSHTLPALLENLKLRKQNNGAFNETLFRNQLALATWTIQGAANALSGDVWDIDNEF

On to “ACTCATAGGGTTAGGGGCTGCTGGCCAGATACTCAGATGGTAGGGTTACTATGAGC [XQ-2D]”, for which the Kd in data set [1] is 55 nM.

As for “AGGGCCCGACGTGACGGCACGTCGGATATCTCATGCGTGT [M17]”, the Kd in data set [2] is 4.98 nM.

“CATGGTGCAGGTGTGGCTGGGATTCATTTGCCGGTGCTGGTGCGTCCGCGGCCGCTAATCCTGTTC [AP1153]”: the equilibrium dissociation constant (Kd) in data set [3] is 0.206 nM.

In the case of GGTGGTGGTGGTGTTGGTGGTGGTGG [AS1411], in the data set with nucleolin, the dissociation constant Kd is 16.4 nM.
